{"source": "the supplement of paper PMC9112550", "about": "“Optimization of the antimicrobial peptide Bac7 by deep mutational scanning” (BMC Biology, 2022);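 further: peptides expressed intracellularly from a pBAD plasmid library in pooled LB shake-flask culture, induced with 0.3% L-arabinose, DNA abundance read by NGS, three biological replicates, DESeq2 with apeglm shrinkage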", "data": [{"system": "Escherichia coli TOP10", "test": "shrunken log2 fold change of peptide-encoding DNA abundance (4.5 h post-induction vs induction); higher = less antimicrobial activity (less host growth inhibition)", "details": "time post-induction: 4.5 h; library: site-saturation at positions 5, 18, 19, 20", "values": [{"sequence": "RRIRLRPPRLPRPRPRPFTRPRP", "shrunken log2 fold change": -0.0482}, {"sequence": "RRIRYRPPRLPRPRPRPIDHPRP", "shrunken log2 fold change": -0.0413}, {"sequence": "RRIRLRPPRLPRPRPRPWYVPRP", "shrunken log2 fold change": -0.125}, {"sequence": "RRIRSRPPRLPRPRPRPPKPPRP", "shrunken log2 fold change": 0.149}, {"sequence": "RRIRYRPPRLPRPRPRPDEFPRP", "shrunken log2 fold change": 0.0196}, {"sequence": "RRIRQRPPRLPRPRPRPGQLPRP", "shrunken log2 fold change": -0.0292}, {"sequence": "RRIRGRPPRLPRPRPRPGRRPRP", "shrunken log2 fold change": 0.849}, {"sequence": "RRIRTRPPRLPRPRPRPLMVPRP", "shrunken log2 fold change": -0.32}, {"sequence": "RRIRPRPPRLPRPRPRPNDRPRP", "shrunken log2 fold change": -0.0965}, {"sequence": "RRIRTRPPRLPRPRPRPSVNPRP", "shrunken log2 fold change": -1.91}, {"sequence": "RRIRDRPPRLPRPRPRPGGAPRP", "shrunken log2 fold change": 0.806}, {"sequence": "RRIRMRPPRLPRPRPRPLIIPRP", "shrunken log2 fold change": -0.249}, {"sequence": "RRIRFRPPRLPRPRPRPNEWPRP", "shrunken log2 fold change": 0.0686}, {"sequence": "RRIRPRPPRLPRPRPRPSGKPRP", "shrunken log2 fold change": -0.247}, {"sequence": "RRIRWRPPRLPRPRPRPVETPRP", "shrunken log2 fold change": -0.0256}, {"sequence": "RRIRKRPPRLPRPRPRPMINPRP", "shrunken log2 fold change": 0.148}, {"sequence": "RRIRFRPPRLPRPRPRPMRFPRP", "shrunken log2 fold change": -0.0257}, {"sequence": "RRIRPRPPRLPRPRPRPPDGPRP", "shrunken log2 fold change": 0.067}, {"sequence": "RRIRNRPPRLPRPRPRPNWDPRP", "shrunken log2 fold change": -0.163}, {"sequence": "RRIRTRPPRLPRPRPRPRNFPRP", "shrunken log2 fold change": 0.172}, {"sequence": "RRIRIRPPRLPRPRPRPKEDPRP", "shrunken log2 fold change": -0.327}, {"sequence": "RRIRNRPPRLPRPRPRPCHKPRP", "shrunken log2 fold change": -0.00663}, {"sequence": "RRIRCRPPRLPRPRPRPWMMPRP", "shrunken log2 fold change": -0.0394}, {"sequence": "RRIRIRPPRLPRPRPRPGTVPRP", "shrunken log2 fold change": -0.624}, {"sequence": "RRIRTRPPRLPRPRPRPLHCPRP", "shrunken log2 fold change": -0.148}, {"sequence": "RRIRYRPPRLPRPRPRPNPQPRP", "shrunken log2 fold change": -0.0909}, {"sequence": "RRIRPRPPRLPRPRPRPRLLPRP", "shrunken log2 fold change": 0.321}, {"sequence": "RRIRHRPPRLPRPRPRPGAQPRP", "shrunken log2 fold change": 0.187}, {"sequence": "RRIRVRPPRLPRPRPRPITWPRP", "shrunken log2 fold change": -0.182}, {"sequence": "RRIRPRPPRLPRPRPRPFQIPRP", "shrunken log2 fold change": -0.169}, {"sequence": "RRIRLRPPRLPRPRPRPKLAPRP", "shrunken log2 fold change": 0.098}, {"sequence": "RRIRFRPPRLPRPRPRPPWNPRP", "shrunken log2 fold change": -0.128}, {"sequence": "RRIRYRPPRLPRPRPRPREGPRP", "shrunken log2 fold change": 0.251}, {"sequence": "RRIRARPPRLPRPRPRPAQAPRP", "shrunken log2 fold change": 0.939}, {"sequence": "RRIRMRPPRLPRPRPRPRFSPRP", "shrunken log2 fold change": 0.206}, {"sequence": "RRIRPRPPRLPRPRPRPEVYPRP", "shrunken log2 fold change": 0.0493}, {"sequence": "RRIRRRPPRLPRPRPRPKLCPRP", "shrunken log2 fold change": 0.333}, {"sequence": "RRIRTRPPRLPRPRPRPEILPRP", "shrunken log2 fold change": 0.0249}, {"sequence": "RRIRDRPPRLPRPRPRPMAPPRP", "shrunken log2 fold change": 0.982}, {"sequence": "RRIRIRPPRLPRPRPRPASGPRP", "shrunken log2 fold change": 0.0837}, {"sequence": "RRIRTRPPRLPRPRPRPWMRPRP", "shrunken log2 fold change": 0.556}, {"sequence": "RRIRKRPPRLPRPRPRPVYKPRP", "shrunken log2 fold change": 0.0665}, {"sequence": "RRIRWRPPRLPRPRPRPKGDPRP", "shrunken log2 fold change": 0.0616}, {"sequence": "RRIRGRPPRLPRPRPRPYHSPRP", "shrunken log2 fold change": -0.861}, {"sequence": "RRIRMRPPRLPRPRPRPGFKPRP", "shrunken log2 fold change": 0.46}, {"sequence": "RRIRLRPPRLPRPRPRPIKGPRP", "shrunken log2 fold change": -0.106}, {"sequence": "RRIRVRPPRLPRPRPRPGETPRP", "shrunken log2 fold change": -0.238}, {"sequence": "RRIRQRPPRLPRPRPRPEESPRP", "shrunken log2 fold change": 0.0313}, {"sequence": "RRIRPRPPRLPRPRPRPANGPRP", "shrunken log2 fold change": 0.0748}, {"sequence": "RRIRNRPPRLPRPRPRPYFNPRP", "shrunken log2 fold change": -1.51}, {"sequence": "RRIRCRPPRLPRPRPRPQQIPRP", "shrunken log2 fold change": -0.168}, {"sequence": "RRIRCRPPRLPRPRPRPCTVPRP", "shrunken log2 fold change": -0.419}, {"sequence": "RRIRHRPPRLPRPRPRPNHHPRP", "shrunken log2 fold change": -0.797}, {"sequence": "RRIRMRPPRLPRPRPRPLQMPRP", "shrunken log2 fold change": 2.29}, {"sequence": "RRIRLRPPRLPRPRPRPGKNPRP", "shrunken log2 fold change": -0.304}, {"sequence": "RRIRMRPPRLPRPRPRPSWHPRP", "shrunken log2 fold change": -0.103}, {"sequence": "RRIRQRPPRLPRPRPRPPKWPRP", "shrunken log2 fold change": 0.136}, {"sequence": "RRIRLRPPRLPRPRPRPKPEPRP", "shrunken log2 fold change": 0.249}, {"sequence": "RRIRVRPPRLPRPRPRPYRNPRP", "shrunken log2 fold change": -0.0374}, {"sequence": "RRIRTRPPRLPRPRPRPFLWPRP", "shrunken log2 fold change": 0.189}]}]}
